One block for each binder: values may come before it.
Experiments:
[1] = molecular target: T1, Broxl, long form of the human Brox protein (residues 2-411) (human, UniProt Q5VW32 2-411); test: crystal structure
T1 sequence (looked up): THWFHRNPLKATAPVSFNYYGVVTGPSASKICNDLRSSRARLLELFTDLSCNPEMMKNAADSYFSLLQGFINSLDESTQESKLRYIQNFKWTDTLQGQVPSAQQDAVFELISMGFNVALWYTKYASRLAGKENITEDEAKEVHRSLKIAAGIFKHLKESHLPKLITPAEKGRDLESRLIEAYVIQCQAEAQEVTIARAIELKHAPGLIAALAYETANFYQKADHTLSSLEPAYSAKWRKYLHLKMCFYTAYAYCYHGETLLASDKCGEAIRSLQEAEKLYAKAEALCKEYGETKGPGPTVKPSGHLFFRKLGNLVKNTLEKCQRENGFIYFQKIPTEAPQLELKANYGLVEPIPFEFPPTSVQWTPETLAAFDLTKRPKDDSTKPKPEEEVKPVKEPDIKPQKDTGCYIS

[2] = molecular target: T2, Broxs, short form of the human Brox protein (residues 2-377) (human, UniProt Q5VW32 2-377); test: crystal structure
T2 sequence (looked up): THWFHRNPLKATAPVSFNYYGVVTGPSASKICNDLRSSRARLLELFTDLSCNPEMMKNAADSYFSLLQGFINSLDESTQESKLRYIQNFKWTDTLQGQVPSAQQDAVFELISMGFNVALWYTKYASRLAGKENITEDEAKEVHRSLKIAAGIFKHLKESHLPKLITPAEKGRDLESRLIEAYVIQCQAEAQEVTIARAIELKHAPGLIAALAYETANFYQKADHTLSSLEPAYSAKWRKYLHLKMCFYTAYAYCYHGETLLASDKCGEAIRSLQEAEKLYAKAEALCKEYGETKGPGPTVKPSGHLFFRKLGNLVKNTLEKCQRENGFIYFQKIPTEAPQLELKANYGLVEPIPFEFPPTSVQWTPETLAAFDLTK

binding result [1]: binds
binding result [2]: binds
Binder: TKNKDGVLVDEFGLPQIPAS [synthesized peptide corresponding to the CHMP5 C-terminal 20 residues]

binding result [1]: binds
binding result [2]: binds
B1: C-terminal fragment of human CHMP5 (residues 151-219) (domain or fragment, UniProt Q9NZZ3 151-219, looked up)
chain: RSYGTPELDEDDLEAELDALGDELLADEDSSYLDEAASAPAIPEGVPTDTKNKDGVLVDEFGLPQIPAS

From article PMC3350598 (Structure(London, England:1993), 2012)
